T1: human amylin receptor (Amylin 3(a) receptor: human calcitonin receptor co-expressed with RAMP-3) (human, UniProt P30988 25-474; O60896 24-148, limits assumed)
T1 construct: whole, on cells; Used as cell membranes prepared from the Amylin 3(a)/CRE-luc BHK cells (Assay V); the complex is called the human amylin receptor; also called hAmylin-R; hAmylinR
T1 sequence (looked up) 1: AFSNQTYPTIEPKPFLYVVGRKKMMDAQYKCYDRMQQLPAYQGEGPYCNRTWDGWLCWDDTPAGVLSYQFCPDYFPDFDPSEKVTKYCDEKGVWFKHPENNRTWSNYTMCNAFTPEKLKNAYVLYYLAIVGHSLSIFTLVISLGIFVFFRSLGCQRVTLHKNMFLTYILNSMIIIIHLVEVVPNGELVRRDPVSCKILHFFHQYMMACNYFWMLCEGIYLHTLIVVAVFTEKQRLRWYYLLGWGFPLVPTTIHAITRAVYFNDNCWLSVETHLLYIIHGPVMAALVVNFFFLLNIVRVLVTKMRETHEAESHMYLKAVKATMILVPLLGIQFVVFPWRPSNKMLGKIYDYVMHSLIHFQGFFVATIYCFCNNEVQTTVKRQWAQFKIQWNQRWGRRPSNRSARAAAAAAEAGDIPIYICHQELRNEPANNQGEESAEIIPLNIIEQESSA
T1 sequence (looked up) 2: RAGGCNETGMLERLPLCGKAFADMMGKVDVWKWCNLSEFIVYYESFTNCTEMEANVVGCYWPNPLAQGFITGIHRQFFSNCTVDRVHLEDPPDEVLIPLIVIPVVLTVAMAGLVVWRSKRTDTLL

B1: N^ε1-[(4S)-4-carboxy-4-(19-carboxynonadecanoylamino)butanoyl]-[Glu14,Arg17,Pro21,Pro27,Pro34,Arg35]-h-amylin (peptide)
peptide: K([γGlu-C20 diacid])CNTATCATQRLAEFLRHSSPNFGAIPSSTNVGPRTY-NH2
modifications: disulfide 2-7; N-terminus assumed
SMILES: CC[C@H](C)[C@H](NC(=O)[C@H](C)NC(=O)CNC(=O)[C@H](Cc1ccccc1)NC(=O)[C@H](CC(N)=O)NC(=O)[C@@H]1CCCN1C(=O)[C@H](CO)NC(=O)[C@H](CO)NC(=O)[C@H](Cc1c[nH]cn1)NC(=O)[C@H](CCCNC(=N)N)NC(=O)[C@H](CC(C)C)NC(=O)[C@H](Cc1ccccc1)NC(=O)[C@H](CCC(=O)O)NC(=O)[C@H](C)NC(=O)[C@H](CC(C)C)NC(=O)[C@H](CCCNC(=N)N)NC(=O)[C@H](CCC(N)=O)NC(=O)[C@@H](NC(=O)[C@H](C)NC(=O)[C@@H]1CSSC[C@H](NC(=O)[C@@H](N)CCCCNC(=O)CC[C@H](NC(=O)CCCCCCCCCCCCCCCCCCC(=O)O)C(=O)O)C(=O)N[C@@H](CC(N)=O)C(=O)N[C@@H]([C@@H](C)O)C(=O)N[C@@H](C)C(=O)N[C@@H]([C@@H](C)O)C(=O)N1)[C@@H](C)O)C(=O)N1CCC[C@H]1C(=O)N[C@@H](CO)C(=O)N[C@@H](CO)C(=O)N[C@H](C(=O)N[C@@H](CC(N)=O)C(=O)N[C@H](C(=O)NCC(=O)N1CCC[C@H]1C(=O)N[C@@H](CCCNC(=N)N)C(=O)N[C@H](C(=O)N[C@@H](Cc1ccc(O)cc1)C(N)=O)[C@@H](C)O)C(C)C)[C@@H](C)O
notes: modifications are with respect to human amylin
B2: N^ε1-[(4S)-4-carboxy-4-[[(4S)-4-carboxy-4-(19-carboxynonadecanoylamino)butanoyl]amino]butanoyl]-[Glu14,Arg17,Pro21,Pro27,Arg34,Glu35]-h-amylin (peptide)
peptide: K([γGlu-γGlu-C20 diacid])CNTATCATQRLAEFLRHSSPNFGAIPSSTNVGRETY-NH2
modifications: disulfide 2-7; N-terminus assumed
SMILES: CC[C@H](C)[C@H](NC(=O)[C@H](C)NC(=O)CNC(=O)[C@H](Cc1ccccc1)NC(=O)[C@H](CC(N)=O)NC(=O)[C@@H]1CCCN1C(=O)[C@H](CO)NC(=O)[C@H](CO)NC(=O)[C@H](Cc1c[nH]cn1)NC(=O)[C@H](CCCNC(=N)N)NC(=O)[C@H](CC(C)C)NC(=O)[C@H](Cc1ccccc1)NC(=O)[C@H](CCC(=O)O)NC(=O)[C@H](C)NC(=O)[C@H](CC(C)C)NC(=O)[C@H](CCCNC(=N)N)NC(=O)[C@H](CCC(N)=O)NC(=O)[C@@H](NC(=O)[C@H](C)NC(=O)[C@@H]1CSSC[C@H](NC(=O)[C@@H](N)CCCCNC(=O)CC[C@H](NC(=O)CC[C@H](NC(=O)CCCCCCCCCCCCCCCCCCC(=O)O)C(=O)O)C(=O)O)C(=O)N[C@@H](CC(N)=O)C(=O)N[C@@H]([C@@H](C)O)C(=O)N[C@@H](C)C(=O)N[C@@H]([C@@H](C)O)C(=O)N1)[C@@H](C)O)C(=O)N1CCC[C@H]1C(=O)N[C@@H](CO)C(=O)N[C@@H](CO)C(=O)N[C@H](C(=O)N[C@@H](CC(N)=O)C(=O)N[C@H](C(=O)NCC(=O)N[C@@H](CCCNC(=N)N)C(=O)N[C@@H](CCC(=O)O)C(=O)N[C@H](C(=O)N[C@@H](Cc1ccc(O)cc1)C(N)=O)[C@@H](C)O)C(C)C)[C@@H](C)O
notes: as for B1
B3: N^ε1-[(4S)-4-carboxy-4-[[(4S)-4-carboxy-4-(19-carboxynonadecanoylamino)butanoyl]amino]butanoyl]-[Asp14,Arg17,Pro21,Pro27,Pro34,Glu35]-h-amylin (peptide)
peptide: K([γGlu-γGlu-C20 diacid])CNTATCATQRLADFLRHSSPNFGAIPSSTNVGPETY-NH2
modifications: disulfide 2-7
notes: as for B1
B4: N^ε1-[(4S)-4-carboxy-4-[[(4S)-4-carboxy-4-(19-carboxynonadecanoylamino)butanoyl]amino]butanoyl]-[Arg17,Pro21,Pro27,Pro31,Pro34,Arg35]-h-amylin (peptide)
peptide: K([γGlu-γGlu-C20 diacid])CNTATCATQRLANFLRHSSPNFGAIPSSTPVGPRTY-NH2
modifications: disulfide 2-7; N-terminus assumed
SMILES: CC[C@H](C)[C@H](NC(=O)[C@H](C)NC(=O)CNC(=O)[C@H](Cc1ccccc1)NC(=O)[C@H](CC(N)=O)NC(=O)[C@@H]1CCCN1C(=O)[C@H](CO)NC(=O)[C@H](CO)NC(=O)[C@H](Cc1c[nH]cn1)NC(=O)[C@H](CCCNC(=N)N)NC(=O)[C@H](CC(C)C)NC(=O)[C@H](Cc1ccccc1)NC(=O)[C@H](CC(N)=O)NC(=O)[C@H](C)NC(=O)[C@H](CC(C)C)NC(=O)[C@H](CCCNC(=N)N)NC(=O)[C@H](CCC(N)=O)NC(=O)[C@@H](NC(=O)[C@H](C)NC(=O)[C@@H]1CSSC[C@H](NC(=O)[C@@H](N)CCCCNC(=O)CC[C@H](NC(=O)CC[C@H](NC(=O)CCCCCCCCCCCCCCCCCCC(=O)O)C(=O)O)C(=O)O)C(=O)N[C@@H](CC(N)=O)C(=O)N[C@@H]([C@@H](C)O)C(=O)N[C@@H](C)C(=O)N[C@@H]([C@@H](C)O)C(=O)N1)[C@@H](C)O)C(=O)N1CCC[C@H]1C(=O)N[C@@H](CO)C(=O)N[C@@H](CO)C(=O)N[C@H](C(=O)N1CCC[C@H]1C(=O)N[C@H](C(=O)NCC(=O)N1CCC[C@H]1C(=O)N[C@@H](CCCNC(=N)N)C(=O)N[C@H](C(=O)N[C@@H](Cc1ccc(O)cc1)C(N)=O)[C@@H](C)O)C(C)C)[C@@H](C)O
notes: as for B1
B5: N^ε1-[(4S)-4-carboxy-4-(19-carboxynonadecanoylamino)butanoyl]-[His14,Arg17,Pro21,Pro27,Pro31,Pro34]-h-amylin (peptide)
peptide: K([γGlu-C20 diacid])CNTATCATQRLAHFLRHSSPNFGAIPSSTPVGPNTY-NH2
modifications: disulfide 2-7; N-terminus assumed
SMILES: CC[C@H](C)[C@H](NC(=O)[C@H](C)NC(=O)CNC(=O)[C@H](Cc1ccccc1)NC(=O)[C@H](CC(N)=O)NC(=O)[C@@H]1CCCN1C(=O)[C@H](CO)NC(=O)[C@H](CO)NC(=O)[C@H](Cc1c[nH]cn1)NC(=O)[C@H](CCCNC(=N)N)NC(=O)[C@H](CC(C)C)NC(=O)[C@H](Cc1ccccc1)NC(=O)[C@H](Cc1c[nH]cn1)NC(=O)[C@H](C)NC(=O)[C@H](CC(C)C)NC(=O)[C@H](CCCNC(=N)N)NC(=O)[C@H](CCC(N)=O)NC(=O)[C@@H](NC(=O)[C@H](C)NC(=O)[C@@H]1CSSC[C@H](NC(=O)[C@@H](N)CCCCNC(=O)CC[C@H](NC(=O)CCCCCCCCCCCCCCCCCCC(=O)O)C(=O)O)C(=O)N[C@@H](CC(N)=O)C(=O)N[C@@H]([C@@H](C)O)C(=O)N[C@@H](C)C(=O)N[C@@H]([C@@H](C)O)C(=O)N1)[C@@H](C)O)C(=O)N1CCC[C@H]1C(=O)N[C@@H](CO)C(=O)N[C@@H](CO)C(=O)N[C@H](C(=O)N1CCC[C@H]1C(=O)N[C@H](C(=O)NCC(=O)N1CCC[C@H]1C(=O)N[C@@H](CC(N)=O)C(=O)N[C@H](C(=O)N[C@@H](Cc1ccc(O)cc1)C(N)=O)[C@@H](C)O)C(C)C)[C@@H](C)O
notes: as for B1
B6: N^ε1-[(4S)-4-carboxy-4-[[(4S)-4-carboxy-4-(19-carboxynonadecanoylamino)butanoyl]amino]butanoyl]-[Asp14,Arg17,Pro21,Pro27,Pro34,Arg35]-h-amylin (peptide)
peptide: K([γGlu-γGlu-C20 diacid])CNTATCATQRLADFLRHSSPNFGAIPSSTNVGPRTY-NH2
modifications: disulfide 2-7
notes: modifications are with respect to human amylin; also called compound 130
B7: N^ε1-[(4S)-4-carboxy-4-[[(4S)-4-carboxy-4-(19-carboxynonadecanoylamino)butanoyl]amino]butanoyl]-[D-Asp14,Arg17,Pro21,Pro27,Arg35]-h-amylin (peptide)
peptide: K([γGlu-γGlu-C20 diacid])CNTATCATQRLA[dD]FLRHSSPNFGAIPSSTNVGSRTY-NH2
modifications: disulfide 2-7; N-terminus assumed
SMILES: CC[C@H](C)[C@H](NC(=O)[C@H](C)NC(=O)CNC(=O)[C@H](Cc1ccccc1)NC(=O)[C@H](CC(N)=O)NC(=O)[C@@H]1CCCN1C(=O)[C@H](CO)NC(=O)[C@H](CO)NC(=O)[C@H](Cc1c[nH]cn1)NC(=O)[C@H](CCCNC(=N)N)NC(=O)[C@H](CC(C)C)NC(=O)[C@H](Cc1ccccc1)NC(=O)[C@@H](CC(=O)O)NC(=O)[C@H](C)NC(=O)[C@H](CC(C)C)NC(=O)[C@H](CCCNC(=N)N)NC(=O)[C@H](CCC(N)=O)NC(=O)[C@@H](NC(=O)[C@H](C)NC(=O)[C@@H]1CSSC[C@H](NC(=O)[C@@H](N)CCCCNC(=O)CC[C@H](NC(=O)CC[C@H](NC(=O)CCCCCCCCCCCCCCCCCCC(=O)O)C(=O)O)C(=O)O)C(=O)N[C@@H](CC(N)=O)C(=O)N[C@@H]([C@@H](C)O)C(=O)N[C@@H](C)C(=O)N[C@@H]([C@@H](C)O)C(=O)N1)[C@@H](C)O)C(=O)N1CCC[C@H]1C(=O)N[C@@H](CO)C(=O)N[C@@H](CO)C(=O)N[C@H](C(=O)N[C@@H](CC(N)=O)C(=O)N[C@H](C(=O)NCC(=O)N[C@@H](CO)C(=O)N[C@@H](CCCNC(=N)N)C(=O)N[C@H](C(=O)N[C@@H](Cc1ccc(O)cc1)C(N)=O)[C@@H](C)O)C(C)C)[C@@H](C)O
B8: N^ε1-[(4S)-4-carboxy-4-(19-carboxynonadecanoylamino)butanoyl]-[Glu14,Arg17,Pro21,Pro27,Pro34,His35]-h-amylin (peptide)
peptide: K([γGlu-C20 diacid])CNTATCATQRLAEFLRHSSPNFGAIPSSTNVGPHTY-NH2
modifications: disulfide 2-7
notes: as for B1

Results on eight molecules are retold here after patent publication US20140087995A1 (published 2014).

Numbered stars: 1 amine (or outer) side, 2 acyl side, 3 side chain; on linkers, the order of the positions; unused ones are H or OH. Bridge positions count the residues as written; N and C are the ends. Square brackets hold non-standard residues; d marks the D form. Side chains are listed from the residue outwards. Ends that are not written are not given here. * marks the point of attachment. C20 diacid = O=C(O)CCCCCCCCCCCCCCCCCCC(=O)*; γGlu = O=C(O)[C@H](CCC(=O)[*:2])N[*:1]

The target of this assay is T1, human amylin receptor (Amylin 3(a) …). Kind of assay: SPA competition binding, displacement of 125I-rat amylin from membranes of BHK cells with human calcitonin receptor + RAMP-3 (Assay V). The procedure:
The binding assay was performed using scintillation proximity assay (SPA) beads (RPNQ0001) from PerkinElmer and cell membranes from the Amylin 3(a)/CRE-luc cells (as described in Assay (II)) were used. Membranes were prepared in the following way; the cells were rinsed with PBS and incubated with Versene for approximately 5 min before harvesting. The cells were flushed with PBS and the cell-suspension was centrifuged for 5 min at 1000 rpm. Cells were homogenized (ultrathurrax) in a buffer containing 20 mM Na-HEPES and 10 mM EDTA (pH 7.4) and centrifuged at 20.000 rpm for 15 min. The resulting pellet was resuspended, homogenized and centrifuged (20.000 rpm, 15 min) in a buffer containing 20 mM Na-HEPES and 0.1 mM EDTA (pH 7.4, buffer 2). The resulting pellet was resuspended in buffer 2 and protein concentration was measured (BCA protein Assay, Pierce). The homogenate was kept cold during the whole procedure. The membranes were kept at −80° C. until use. The assay was performed in a 384 well Optiplate (PerkinElmer) in a total volume of 40 ul. Membranes were mixed with SPA beads. Final concentration of membranes 35 ng/μL final and SPA beads was 0.05 mg/well. Test-compounds were dissolved in DMSO and further diluted in assay buffer (50 mM Hepes, pH 7.4, 1 mM CaCl2, 5 mM MgCl₂, 0.1% OA and 0.02% Tween20). […] The final mixture was incubated with shaking at 400 rpm for 120 min at 25° C. prior to centrifugation (1500 rpm, 10 min). Samples were analyzed on TopCounter™ (Packard). The IC₅₀ was calculated using (one site binding competition analysis) GraphPad Prism5 as a measure of receptor affinity.
A general note: Displacement assays read how much labelled ligand stays bound in the presence of the test substance.
As a reminder, the IC50 is the concentration needed to halve the response being measured. As to B1, the IC50 worked out at 163 pM.
Consider B2, for which the concentration for half-maximal inhibition (IC50) came out at 957 pM.
For B3 the value was 172 pM; for B4, 880 pM; for B5, 82 pM.
For B6 the value was 453 pM; for B7, 365 pM.
For B8 the value was 179 pM.
